Results taken from patent US20130344069A1 (SORRENTO THERAPEUTICS, published 2013).

Assays:
[1] = biological target: T1, IGF1R on MCF7 breast cancer cells (UniProt P08069 31-1367, limits assumed); assay: cell-based or functional assay
Insulin Receptor = Insulin Receptor (UniProt P06213-2 28-944, limits assumed); assay: ELISA, one condition
rhIGF1R = biological target: T2, rhIGF1R (human, UniProt P08069 31-932, limits assumed); assay: BLI, Forte Bio Octet Red; B9 on anti-hIgG Fc capture sensor
T2 construct: Recombinant protein used in the Octet measurements; also called recombinant human IGF1R

[2] = biological target: T1, IGF1R on MCF7 breast cancer cells; assay: flow cytometry, binding to MCF7 cells, PE anti-human IgG detection
Method: (§1) This example illustrates in vitro data for anti-IGF1R antibodies cellular binding EC₅₀ measurements. […] In this example, the experimental procedure is as follows: 50,000 MCF7 breast cancer cells were aliquoted into the wells of a 96-well, v-bottom plate in 100 μl FACS Buffer (PBS+2% FBS). Cells were spun down, washed 1× with FACS Buffer, and then resuspended in 25 μl of antibody solution in triplicate. After 0.5 hr incubation, cells were washed 1× with FACS Buffer and resuspended in 50 μl PE-conjugated, goat anti-human IgG (γ-chain specific) secondary antibody (Southern Biotech Cat #2040-09). Cells were further incubated for 0.5 hr and then washed 1× with FACS Buffer. Cells were resuspended in 25 μl FACS Buffer and the median fluorescence intensity in the FL2-H channel was determined using the Intellicyt HTFC flow cytometer.
(§2) While these values range over orders of magnitude, all antibodies show strong, specific binding to MCF7 cells expressing IGF1R. Data was collected on the Intellicyt HTFC flow cytometer, processed using FlowJo software, and analyzed and plotted in Graph Pad Prizm using non-linear regression fit. Data points are shown as the median fluorescence intensity (MFI) of positively labeled cells +/− Std Error.

[3] = biological target: T1, IGF1R on MCF7 breast cancer cells; assay: flow cytometry on MCF7 cells, PE goat anti-human IgG secondary, median FL2-H, non-linear regression fit, the concentration axis is LogM
Method: as §1, §2

Chain of Insulin Receptor (P06213 other isoform, or with tags, fused parts or gaps limits assumed): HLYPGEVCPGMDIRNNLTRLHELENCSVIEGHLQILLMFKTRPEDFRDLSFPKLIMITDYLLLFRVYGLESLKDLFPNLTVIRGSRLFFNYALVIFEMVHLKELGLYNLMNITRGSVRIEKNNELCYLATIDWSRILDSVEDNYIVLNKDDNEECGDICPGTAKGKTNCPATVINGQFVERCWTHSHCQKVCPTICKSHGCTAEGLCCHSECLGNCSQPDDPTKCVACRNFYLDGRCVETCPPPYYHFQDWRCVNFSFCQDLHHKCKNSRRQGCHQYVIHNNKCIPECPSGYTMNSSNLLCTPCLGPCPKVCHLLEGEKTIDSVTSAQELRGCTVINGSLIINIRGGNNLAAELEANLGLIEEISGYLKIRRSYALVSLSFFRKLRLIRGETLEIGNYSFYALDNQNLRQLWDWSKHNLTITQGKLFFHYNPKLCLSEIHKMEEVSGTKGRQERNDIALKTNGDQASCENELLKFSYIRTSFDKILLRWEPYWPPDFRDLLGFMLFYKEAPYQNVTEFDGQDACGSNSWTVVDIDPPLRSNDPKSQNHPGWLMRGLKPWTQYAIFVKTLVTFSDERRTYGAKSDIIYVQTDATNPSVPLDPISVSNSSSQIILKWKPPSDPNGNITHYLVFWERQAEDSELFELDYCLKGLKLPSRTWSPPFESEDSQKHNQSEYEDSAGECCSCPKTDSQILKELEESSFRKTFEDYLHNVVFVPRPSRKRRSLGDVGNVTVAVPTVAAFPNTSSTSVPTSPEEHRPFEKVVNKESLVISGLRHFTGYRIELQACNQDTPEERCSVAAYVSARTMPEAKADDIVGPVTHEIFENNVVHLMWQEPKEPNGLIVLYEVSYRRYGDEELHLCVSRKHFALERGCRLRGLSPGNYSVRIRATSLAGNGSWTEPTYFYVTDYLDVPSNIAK
T1 sequence (P08069 31-1367 limits assumed): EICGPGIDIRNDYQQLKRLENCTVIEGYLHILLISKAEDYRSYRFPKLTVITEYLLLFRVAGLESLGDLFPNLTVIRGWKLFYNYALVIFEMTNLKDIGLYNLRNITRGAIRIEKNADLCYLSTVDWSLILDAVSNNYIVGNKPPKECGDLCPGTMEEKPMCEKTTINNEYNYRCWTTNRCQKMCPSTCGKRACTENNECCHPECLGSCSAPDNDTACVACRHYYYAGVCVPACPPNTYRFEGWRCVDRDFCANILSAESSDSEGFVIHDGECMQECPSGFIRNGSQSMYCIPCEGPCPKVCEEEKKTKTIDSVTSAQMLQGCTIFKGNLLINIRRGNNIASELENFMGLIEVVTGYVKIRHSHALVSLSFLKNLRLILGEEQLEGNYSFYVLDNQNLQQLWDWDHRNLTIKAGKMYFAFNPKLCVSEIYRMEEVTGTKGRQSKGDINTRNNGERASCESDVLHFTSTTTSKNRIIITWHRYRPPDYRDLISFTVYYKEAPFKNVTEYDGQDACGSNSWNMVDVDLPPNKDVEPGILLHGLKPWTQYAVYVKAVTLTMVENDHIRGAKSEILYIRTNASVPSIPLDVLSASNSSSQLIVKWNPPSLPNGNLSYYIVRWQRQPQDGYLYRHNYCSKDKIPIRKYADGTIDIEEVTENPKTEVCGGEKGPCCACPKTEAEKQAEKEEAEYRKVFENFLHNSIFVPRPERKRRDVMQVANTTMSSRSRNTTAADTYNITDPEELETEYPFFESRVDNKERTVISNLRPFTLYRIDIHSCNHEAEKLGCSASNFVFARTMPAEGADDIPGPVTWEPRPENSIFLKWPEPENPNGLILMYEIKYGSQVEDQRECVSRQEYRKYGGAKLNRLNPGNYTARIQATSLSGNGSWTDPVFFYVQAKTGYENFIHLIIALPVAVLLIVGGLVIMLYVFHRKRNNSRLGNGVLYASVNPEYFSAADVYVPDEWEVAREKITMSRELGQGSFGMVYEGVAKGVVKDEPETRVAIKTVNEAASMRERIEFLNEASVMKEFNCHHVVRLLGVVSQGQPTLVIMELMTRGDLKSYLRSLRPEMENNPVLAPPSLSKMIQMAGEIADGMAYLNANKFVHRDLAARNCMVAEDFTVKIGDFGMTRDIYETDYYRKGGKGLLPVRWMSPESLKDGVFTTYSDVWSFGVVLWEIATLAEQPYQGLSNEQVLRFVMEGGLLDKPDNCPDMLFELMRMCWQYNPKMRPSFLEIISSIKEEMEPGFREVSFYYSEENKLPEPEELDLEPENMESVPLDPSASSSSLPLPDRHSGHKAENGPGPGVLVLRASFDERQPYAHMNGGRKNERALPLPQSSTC
T2 sequence (P08069 31-932 limits assumed): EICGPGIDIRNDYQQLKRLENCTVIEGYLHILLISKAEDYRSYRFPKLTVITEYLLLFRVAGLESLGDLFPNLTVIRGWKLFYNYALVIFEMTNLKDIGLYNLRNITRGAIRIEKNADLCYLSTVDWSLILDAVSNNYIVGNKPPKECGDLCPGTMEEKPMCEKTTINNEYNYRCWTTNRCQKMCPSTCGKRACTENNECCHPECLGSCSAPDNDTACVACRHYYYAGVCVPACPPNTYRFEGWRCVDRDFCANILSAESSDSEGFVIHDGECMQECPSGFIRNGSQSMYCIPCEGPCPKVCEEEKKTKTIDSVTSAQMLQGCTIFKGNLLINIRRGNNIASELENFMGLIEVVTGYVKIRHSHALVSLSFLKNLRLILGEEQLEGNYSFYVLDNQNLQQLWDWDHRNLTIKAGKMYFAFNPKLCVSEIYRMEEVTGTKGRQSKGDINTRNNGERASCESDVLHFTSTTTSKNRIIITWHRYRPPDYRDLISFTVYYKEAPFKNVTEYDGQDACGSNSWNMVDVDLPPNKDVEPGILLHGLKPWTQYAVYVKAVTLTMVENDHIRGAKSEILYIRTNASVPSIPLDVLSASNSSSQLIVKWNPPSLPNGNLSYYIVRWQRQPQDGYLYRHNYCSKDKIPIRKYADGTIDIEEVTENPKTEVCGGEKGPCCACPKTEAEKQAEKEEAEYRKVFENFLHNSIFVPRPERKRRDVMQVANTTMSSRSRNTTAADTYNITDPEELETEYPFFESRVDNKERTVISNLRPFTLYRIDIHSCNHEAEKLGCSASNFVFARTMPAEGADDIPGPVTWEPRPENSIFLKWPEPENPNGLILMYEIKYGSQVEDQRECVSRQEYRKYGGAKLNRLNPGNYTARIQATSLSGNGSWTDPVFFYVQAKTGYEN

IC50 of inhibition of IGF1-stimulated IGF1R auto-phosphorylation in MCF7 cells [1] | binding result (Insulin Receptor) | Kd (rhIGF1R) | EC50 [2] | EC50 [3] | Binder
0.094 nM | no binding (tested: not given) | 1.25 nM | 0.0037 nM | 0.0374 nM | anti-IGF1R antibody B9 (antibody, V domains shown, Fully human antibody of an IgG class (captured on an anti-hIgG Fc sensor, detected with anti-human IgG); also called clone B9) VH: EVQLLESGGGLVQPGGSLRLSCAASGFTFSSYEMNWVRQAPGKGLEWVSYISTGDSTRSYADSVRGRFTISRDNAKNSLYLQMNSLRAEDTAVYYCARESGTWYGGWYFDLWGRGTLVTVSS VL: QSVVTQPPSVSAAPGQKVTISCAGSTSNIGNNFVSWYQQLPGTAPKLLIYDNNKRPSEIPDRFSGSKSGTSATLGITGLQTGDEADYYCVTWDSSLSVVLFGGGTKVTVL
 | no binding (tested: not given) |  |  | 16.1 nM | anti-IGF1R antibody C8 (antibody, V domains shown, Fully human antibody of an IgG class; also called clone C8) VH: QVQLVQSGAEVKKPGSSVKVSCKASGGSFNSFSISWVRQAPGQGLEWMGGITPMFGIGDNAQKFQDRVAITADESMSTFYMELSNLRFEDTAMYFCAREVGGLGFDVWGQGTTVTVSS VL: VIWMTQSPSSLSASVGDRVTFTCQASQHISKYLNWYQQKPGKAPKLLIYDASNLETGVPSRFSGSGSATDFTLTISSLQPEDFATYYCQQSYLTSYTFGQGTKVDIK
 |  |  |  | 0.705 nM | anti-IGF1R antibody A6 (antibody, V domains shown, also called clone A6) VH: QVQLVQSGAEVMKPGASVKVSCKASGYTFTSYGISWVRQAPGQGLEWMGWISAYNGNTNYAQMLQGRVTMTTDTSTSTAYMELRSLRSDDTAVYYCARRGLSSYYYGMDVWGQGTTVTVSS VL: QPVLTQPPSVSAAPGQKVTISCSGGTSNVANNYVSWYQQLPGTAPKLLIYGNSNRPSGVPDRFSGSKSGTSASLAITGLQAEDEADYYCQSYDTSLSGYVFGSGTKVTVL
 | no binding (tested: not given) |  |  | 5.83 nM | anti-IGF1R antibody B10 (antibody, V domains shown, Fully human antibody of an IgG class; also called clone B10) VH: QVQLVQSGAEVKKPGASVKVSCKGSGYNFPTQAIHWVRQAPGQRLEWMGWTNTANGNAKYSQKFQGRVTITRDTYASTDYMELSSLTSEDTAIYYCTRDRFTGSGTYGMDVWGQGTTVTVSS VL: SYELMQPSSVSVSPGQTARITCSGDLLTRRYARWFQQKPGQAPLLIIYRDTVRPSGIPERFSASSSGATITLTISGAQLEDEADYYCYSATDNNVVFGGGTKLTVL
